Measured values published in patent US20220204580A1 (AstraZeneca / MedImmune, published 2022).
Values belong to the binder of their own block, whether it stands above or below them. Numbered stars: 1 amine (or outer) side, 2 acyl side, 3 side chain; on linkers, the order of the positions; unused ones are H or OH. Bridge positions count the residues as written; N and C are the ends. Square brackets hold non-standard residues; d marks the D form. Side chains are listed from the residue outwards. Ends that are not written are not given here. * marks the point of attachment. C18 diacid = O=C(O)CCCCCCCCCCCCCCCCC(=O)*; γGlu = O=C(O)[C@H](CCC(=O)[*:2])N[*:1]; Aib = CC(C)(N)C(=O)O

How the values were obtained:
[1] = target: T1, human amylin receptor (calcitonin receptor co-expressed with receptor activity modifying protein, RAMP3) (human, UniProt P30988 25-474; O60896 24-148); assay: cell-based or functional assay
T1 sequence (looked up) 1: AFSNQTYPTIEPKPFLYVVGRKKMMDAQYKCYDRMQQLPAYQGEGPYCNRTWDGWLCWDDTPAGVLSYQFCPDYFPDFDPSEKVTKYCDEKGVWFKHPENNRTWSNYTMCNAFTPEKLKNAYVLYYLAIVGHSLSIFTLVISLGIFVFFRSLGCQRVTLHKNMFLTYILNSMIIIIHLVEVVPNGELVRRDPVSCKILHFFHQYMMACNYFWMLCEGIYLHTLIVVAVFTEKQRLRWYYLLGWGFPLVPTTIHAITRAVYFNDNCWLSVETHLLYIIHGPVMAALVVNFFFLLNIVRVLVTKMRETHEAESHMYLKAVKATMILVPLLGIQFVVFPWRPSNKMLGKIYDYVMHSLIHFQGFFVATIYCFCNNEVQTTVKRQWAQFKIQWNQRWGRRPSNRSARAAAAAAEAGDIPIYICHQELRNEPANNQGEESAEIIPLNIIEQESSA
T1 sequence (looked up) 2: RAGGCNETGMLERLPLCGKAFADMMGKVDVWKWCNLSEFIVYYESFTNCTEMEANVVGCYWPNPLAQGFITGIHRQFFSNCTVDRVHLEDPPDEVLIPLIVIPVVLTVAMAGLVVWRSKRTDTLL

[2] = target: T2, human calcitonin receptor (human, UniProt P30988 25-474); assay: cell-based or functional assay
T2 sequence (looked up): T1 sequence (looked up) 1

EC50 (cAMP production) [1]: 118 pM
Ratio (EC50 hCTR / EC50 hAMYR3) [1]: 3
EC50 (cAMP production) [2]: 0.401 nM
B2: Peptide 84 (SEQ ID NO: 84) (peptide)
peptide: K([γGlu-C18 diacid])KCNTATCATQRLANFLVHSS[Aib]NFGPILPPTNVG[Aib]NTY-NH2
modifications: disulfide 3-8; N-terminus assumed
SMILES: CC[C@H](C)[C@H](NC(=O)[C@@H]1CCCN1C(=O)CNC(=O)[C@H](Cc1ccccc1)NC(=O)[C@H](CC(N)=O)NC(=O)C(C)(C)NC(=O)[C@H](CO)NC(=O)[C@H](CO)NC(=O)[C@H](Cc1c[nH]cn1)NC(=O)[C@@H](NC(=O)[C@H](CC(C)C)NC(=O)[C@H](Cc1ccccc1)NC(=O)[C@H](CC(N)=O)NC(=O)[C@H](C)NC(=O)[C@H](CC(C)C)NC(=O)[C@H](CCCNC(=N)N)NC(=O)[C@H](CCC(N)=O)NC(=O)[C@@H](NC(=O)[C@H](C)NC(=O)[C@@H]1CSSC[C@H](NC(=O)[C@H](CCCCN)NC(=O)[C@@H](N)CCCCNC(=O)CC[C@H](NC(=O)CCCCCCCCCCCCCCCCC(=O)O)C(=O)O)C(=O)N[C@@H](CC(N)=O)C(=O)N[C@@H]([C@@H](C)O)C(=O)N[C@@H](C)C(=O)N[C@@H]([C@@H](C)O)C(=O)N1)[C@@H](C)O)C(C)C)C(=O)N[C@@H](CC(C)C)C(=O)N1CCC[C@H]1C(=O)N1CCC[C@H]1C(=O)N[C@H](C(=O)N[C@@H](CC(N)=O)C(=O)N[C@H](C(=O)NCC(=O)NC(C)(C)C(=O)N[C@@H](CC(N)=O)C(=O)N[C@H](C(=O)N[C@@H](Cc1ccc(O)cc1)C(N)=O)[C@@H](C)O)C(C)C)[C@@H](C)O

EC50 (cAMP production) [1]: 514 pM
Ratio (EC50 hCTR / EC50 hAMYR3) [1]: 8
EC50 (cAMP production) [2]: 4.28 nM
B3: Peptide 82 (SEQ ID NO: 82) (peptide)
peptide: K([γGlu-C18 diacid])KCNTATCATQRLANFLVHSS[Aib]NFGPILPPTNVGS[Aib]TY-NH2
modifications: disulfide 3-8; N-terminus assumed
SMILES: CC[C@H](C)[C@H](NC(=O)[C@@H]1CCCN1C(=O)CNC(=O)[C@H](Cc1ccccc1)NC(=O)[C@H](CC(N)=O)NC(=O)C(C)(C)NC(=O)[C@H](CO)NC(=O)[C@H](CO)NC(=O)[C@H](Cc1c[nH]cn1)NC(=O)[C@@H](NC(=O)[C@H](CC(C)C)NC(=O)[C@H](Cc1ccccc1)NC(=O)[C@H](CC(N)=O)NC(=O)[C@H](C)NC(=O)[C@H](CC(C)C)NC(=O)[C@H](CCCNC(=N)N)NC(=O)[C@H](CCC(N)=O)NC(=O)[C@@H](NC(=O)[C@H](C)NC(=O)[C@@H]1CSSC[C@H](NC(=O)[C@H](CCCCN)NC(=O)[C@@H](N)CCCCNC(=O)CC[C@H](NC(=O)CCCCCCCCCCCCCCCCC(=O)O)C(=O)O)C(=O)N[C@@H](CC(N)=O)C(=O)N[C@@H]([C@@H](C)O)C(=O)N[C@@H](C)C(=O)N[C@@H]([C@@H](C)O)C(=O)N1)[C@@H](C)O)C(C)C)C(=O)N[C@@H](CC(C)C)C(=O)N1CCC[C@H]1C(=O)N1CCC[C@H]1C(=O)N[C@H](C(=O)N[C@@H](CC(N)=O)C(=O)N[C@H](C(=O)NCC(=O)N[C@@H](CO)C(=O)NC(C)(C)C(=O)N[C@H](C(=O)N[C@@H](Cc1ccc(O)cc1)C(N)=O)[C@@H](C)O)C(C)C)[C@@H](C)O

EC50 (cAMP production) [1]: 119 pM
Ratio (EC50 hCTR / EC50 hAMYR3) [1]: 3
EC50 (cAMP production) [2]: 0.311 nM
B5: Peptide 86 (SEQ ID NO: 86) (peptide)
peptide: K([γGlu-C18 diacid])KCNTATCATQRLAHFL[Aib]HSS[Aib]NFGPILPPTEVGSNTY-NH2
modifications: disulfide 3-8; N-terminus assumed
SMILES: CC[C@H](C)[C@H](NC(=O)[C@@H]1CCCN1C(=O)CNC(=O)[C@H](Cc1ccccc1)NC(=O)[C@H](CC(N)=O)NC(=O)C(C)(C)NC(=O)[C@H](CO)NC(=O)[C@H](CO)NC(=O)[C@H](Cc1c[nH]cn1)NC(=O)C(C)(C)NC(=O)[C@H](CC(C)C)NC(=O)[C@H](Cc1ccccc1)NC(=O)[C@H](Cc1c[nH]cn1)NC(=O)[C@H](C)NC(=O)[C@H](CC(C)C)NC(=O)[C@H](CCCNC(=N)N)NC(=O)[C@H](CCC(N)=O)NC(=O)[C@@H](NC(=O)[C@H](C)NC(=O)[C@@H]1CSSC[C@H](NC(=O)[C@H](CCCCN)NC(=O)[C@@H](N)CCCCNC(=O)CC[C@H](NC(=O)CCCCCCCCCCCCCCCCC(=O)O)C(=O)O)C(=O)N[C@@H](CC(N)=O)C(=O)N[C@@H]([C@@H](C)O)C(=O)N[C@@H](C)C(=O)N[C@@H]([C@@H](C)O)C(=O)N1)[C@@H](C)O)C(=O)N[C@@H](CC(C)C)C(=O)N1CCC[C@H]1C(=O)N1CCC[C@H]1C(=O)N[C@H](C(=O)N[C@@H](CCC(=O)O)C(=O)N[C@H](C(=O)NCC(=O)N[C@@H](CO)C(=O)N[C@@H](CC(N)=O)C(=O)N[C@H](C(=O)N[C@@H](Cc1ccc(O)cc1)C(N)=O)[C@@H](C)O)C(C)C)[C@@H](C)O

Continued, binder first:

B1: Peptide 85 (SEQ ID NO: 85) (peptide)
peptide: K([γGlu-C18 diacid])KCNTATCATQRLANFLVHSS[Aib]NFGPILPPTNVGSNT[Aib]-NH2
modifications: disulfide 3-8; N-terminus assumed
SMILES: CC[C@H](C)[C@H](NC(=O)[C@@H]1CCCN1C(=O)CNC(=O)[C@H](Cc1ccccc1)NC(=O)[C@H](CC(N)=O)NC(=O)C(C)(C)NC(=O)[C@H](CO)NC(=O)[C@H](CO)NC(=O)[C@H](Cc1c[nH]cn1)NC(=O)[C@@H](NC(=O)[C@H](CC(C)C)NC(=O)[C@H](Cc1ccccc1)NC(=O)[C@H](CC(N)=O)NC(=O)[C@H](C)NC(=O)[C@H](CC(C)C)NC(=O)[C@H](CCCNC(=N)N)NC(=O)[C@H](CCC(N)=O)NC(=O)[C@@H](NC(=O)[C@H](C)NC(=O)[C@@H]1CSSC[C@H](NC(=O)[C@H](CCCCN)NC(=O)[C@@H](N)CCCCNC(=O)CC[C@H](NC(=O)CCCCCCCCCCCCCCCCC(=O)O)C(=O)O)C(=O)N[C@@H](CC(N)=O)C(=O)N[C@@H]([C@@H](C)O)C(=O)N[C@@H](C)C(=O)N[C@@H]([C@@H](C)O)C(=O)N1)[C@@H](C)O)C(C)C)C(=O)N[C@@H](CC(C)C)C(=O)N1CCC[C@H]1C(=O)N1CCC[C@H]1C(=O)N[C@H](C(=O)N[C@@H](CC(N)=O)C(=O)N[C@H](C(=O)NCC(=O)N[C@@H](CO)C(=O)N[C@@H](CC(N)=O)C(=O)N[C@H](C(=O)NC(C)(C)C(N)=O)[C@@H](C)O)C(C)C)[C@@H](C)O
EC50 (cAMP production) [1]: 806 pM
Ratio (EC50 hCTR / EC50 hAMYR3) [1]: 4
EC50 (cAMP production) [2]: 3.1 nM

B4: Peptide 83 (SEQ ID NO: 83) (peptide)
peptide: K([γGlu-C18 diacid])KCNTATCATQRLANFLVHSS[Aib]NFGPILPPTNVGSN[Aib]Y-NH2
modifications: disulfide 3-8; N-terminus assumed
SMILES: CC[C@H](C)[C@H](NC(=O)[C@@H]1CCCN1C(=O)CNC(=O)[C@H](Cc1ccccc1)NC(=O)[C@H](CC(N)=O)NC(=O)C(C)(C)NC(=O)[C@H](CO)NC(=O)[C@H](CO)NC(=O)[C@H](Cc1c[nH]cn1)NC(=O)[C@@H](NC(=O)[C@H](CC(C)C)NC(=O)[C@H](Cc1ccccc1)NC(=O)[C@H](CC(N)=O)NC(=O)[C@H](C)NC(=O)[C@H](CC(C)C)NC(=O)[C@H](CCCNC(=N)N)NC(=O)[C@H](CCC(N)=O)NC(=O)[C@@H](NC(=O)[C@H](C)NC(=O)[C@@H]1CSSC[C@H](NC(=O)[C@H](CCCCN)NC(=O)[C@@H](N)CCCCNC(=O)CC[C@H](NC(=O)CCCCCCCCCCCCCCCCC(=O)O)C(=O)O)C(=O)N[C@@H](CC(N)=O)C(=O)N[C@@H]([C@@H](C)O)C(=O)N[C@@H](C)C(=O)N[C@@H]([C@@H](C)O)C(=O)N1)[C@@H](C)O)C(C)C)C(=O)N[C@@H](CC(C)C)C(=O)N1CCC[C@H]1C(=O)N1CCC[C@H]1C(=O)N[C@H](C(=O)N[C@@H](CC(N)=O)C(=O)N[C@H](C(=O)NCC(=O)N[C@@H](CO)C(=O)N[C@@H](CC(N)=O)C(=O)NC(C)(C)C(=O)N[C@@H](Cc1ccc(O)cc1)C(N)=O)C(C)C)[C@@H](C)O
EC50 (cAMP production) [1]: 599 pM
Ratio (EC50 hCTR / EC50 hAMYR3) [1]: 11
EC50 (cAMP production) [2]: 6.34 nM
